Article PMC5659314 (Journal of immunology (Baltimore, Md. : 1950), 2017)

Legend:
mouse DR3.Fc (mouse) = test: SPR
human TL1A = target: T1, human TL1A (human, UniProt O95150 72-251); test: ELISA
T1 sequence (looked up): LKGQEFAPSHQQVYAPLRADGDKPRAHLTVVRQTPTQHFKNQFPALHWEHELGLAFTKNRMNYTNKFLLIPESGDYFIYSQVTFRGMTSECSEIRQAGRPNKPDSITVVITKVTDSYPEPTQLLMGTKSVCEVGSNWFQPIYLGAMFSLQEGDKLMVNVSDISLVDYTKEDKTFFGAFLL

[1] = target: recombinant mouse Galectin-9 (mouse, UniProt O08573 1-353); test: SPR
[2] = target: recombinant human Galectin-9 (human, UniProt O00182 1-355); test: SPR
Chain of recombinant human Galectin-9 (human, UniProt O00182 1-355) (O00182 whole entry): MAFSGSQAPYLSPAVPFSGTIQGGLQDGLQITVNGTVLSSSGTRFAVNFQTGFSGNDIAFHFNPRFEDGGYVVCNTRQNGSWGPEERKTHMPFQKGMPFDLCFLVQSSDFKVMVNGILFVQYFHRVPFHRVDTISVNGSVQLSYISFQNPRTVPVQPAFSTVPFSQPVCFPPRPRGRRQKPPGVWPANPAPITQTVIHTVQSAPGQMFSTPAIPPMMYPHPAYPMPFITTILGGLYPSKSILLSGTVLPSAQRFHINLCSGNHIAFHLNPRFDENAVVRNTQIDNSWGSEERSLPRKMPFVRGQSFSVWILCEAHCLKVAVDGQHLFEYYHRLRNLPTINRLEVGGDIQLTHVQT

Chain of recombinant mouse Galectin-9 (mouse, UniProt O08573 1-353) (O08573 whole entry): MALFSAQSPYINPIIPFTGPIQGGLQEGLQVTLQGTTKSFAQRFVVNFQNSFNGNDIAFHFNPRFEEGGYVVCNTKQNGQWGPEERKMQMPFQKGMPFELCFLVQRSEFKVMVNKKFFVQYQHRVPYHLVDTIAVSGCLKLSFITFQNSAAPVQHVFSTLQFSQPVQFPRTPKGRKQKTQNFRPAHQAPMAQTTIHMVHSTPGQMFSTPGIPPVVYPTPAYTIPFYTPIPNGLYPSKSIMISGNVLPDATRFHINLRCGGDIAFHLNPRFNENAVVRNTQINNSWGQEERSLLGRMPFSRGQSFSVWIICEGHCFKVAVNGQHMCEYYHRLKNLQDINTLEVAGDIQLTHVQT

Work on “recombinant human Galectin-9 (from UniProt O00182 1-355) (natural protein)” yielded a Kd (mouse DR3.Fc (mouse)) of 0.18 µM.

With “recombinant mouse Galectin-9 (from UniProt O08573 1-353) (natural protein)” the Kd (mouse DR3.Fc (mouse)) was 0.36 µM.

B1: human DR3.Fc (fusion protein containing the extracellular region of human DR3) (Fc fusion, UniProt Q93038 25-199, looked up)
chain: QGGTRSPRCDCAGDFHKKIGLFCCRGCPAGHYLKAPCTEPCGNSTCLVCPQDTFLAWENHHNSECARCQACDEQASQVALENCSAVADTRCGCKPGWFVECQVSQCVSSSPFYCQPCLDCGALHRHTRLLCSRRDTDCGTCLPGFYEHGDGCVSCPTSTLGSCPERCAAVCGWRQ
With B1 the binding result (human TL1A) was “binds”, the Kd [1] was ~0.44 µM and the Kd [2] was ~0.43 µM.

B2: de-glycosylated human DR3.Fc (PNGase F treated) (Fc fusion, UniProt Q93038 25-199, looked up)
chain: B1 chain
modifications: N-linked sugars removed by PNGase F
B2: binds (human TL1A).
